Reference: the supplement of paper PMC10567573

B1: FAM98B (parent)
chain: QLDKNSEVYQEVQAMFDTLGIPKS
B2: MED27 (parent)
chain: YNENVYTEDGKLDIWSKSNYQVFQ

Variants of: B1
Assay: protein stability index of a GFP-peptide fusion (GPS, HEK-293T) (PSI 1-6); higher = more stable
Conditions: c terminus: a fixed tail appended
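Also: lentivirally expressed fusions sorted by FACS into six bins by GFP to DsRed ratio, PSI derived from sequencing read proportions per bin multiplied by bin number.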

Protein stability index, by site and new letter:
Q1: E 2.9, D 4.18, I 3.23, C 2.52, N 3.39, R 3.39, L 2.55, M 2.79, F 2.2, P 3.53, A 2.91, H 3.64, K 3.2, G 3.31

Variants of: B2
Assay: as above
Conditions: c terminus: a fixed tail appended

Protein stability index of substitutions, site by site:
I14: F 2.3, L 2.49, P 2.29, W 2.15, N 3.28, S 3.23, C 2.92, H 2.83, A 2.9, G 3.29, E 3.87, T 2.78, K 2.71, D 3.48, V 2.62, Q 3.07, R 3.23, M 2.65, Y 1.95
V22: P 2.66, C 2.56, E 2.52, I 2.22, Q 2.73, D 2.83, A 2.3, G 2.24, M 2.37, L 2.28, Y 2.42, W 1.76, H 2.27, T 2.45, S 2.5, N 2.41, F 2.79, R 2.21, K 2.4
D13: H 2.44, L 1.69, I 2.06, G 1.88, E 2.36, R 2.32, N 1.76, A 2.12, V 3, S 1.92, Y 2.04, Q 2.05, F 1.84, M 1.79, C 2.09, T 1.63, K 2.55, P 2.81, W 2.46
Y20: A 2.49, C 2.49, G 2.62, I 2.37, E 3.2, R 2.59, T 2.9, H 2.58, P 3.01, M 1.92, F 2.25, D 3.38, S 2.72, L 2.35, Q 2.94, N 3.28, V 2.52, W 1.64, K 2.76
L12: H 2.07, Q 3.1, E 3.14, W 2.2, D 3.34, N 2.37, V 2.58, T 2.21, P 2.39, R 2.01, K 2.33, M 2.07, S 2.37, I 2.23, C 2.33, A 2.5, Y 1.93, F 2.19, G 2.63
Q21: L 2.07, C 2.01, P 1.98, K 2.44, V 1.82, R 2.23, S 1.97, W 2.45, Y 2.02, A 2.46, N 2.04, T 2.76, H 2.64, E 2.09, D 2.41, M 2.21, G 1.59, I 2.44, F 1.79
F23: D 3.26, H 2.87, C 2.06, M 2.28, Y 2.31, G 2.88, L 2.41, Q 3.29, P 2.99, N 2.93, S 1.4, K 3.22, A 2.5, W 2.16, V 2.38, E 3.02, T 3, I 2.43
K17: E 2.37, D 2.26, V 2.17, S 1.98, W 1.92, F 1.68, L 2.22, T 1.84, P 2.68, R 1.95, M 2.3, Q 1.89, Y 1.98, H 2.43, A 2.24, C 1.54, N 2.07, G 2.34, I 1.74
W15: Y 3.19, Q 3.89, M 3.3, V 3.5, K 4.03, L 3.32, E 4.12, G 4.19, T 3.7, H 3.85, D 4.42, R 3.64, P 3.74, F 2.81, N 4.08, C 3.74, A 4.13, I 3.31, S 3.83
E8: R 1.55, K 1.86, I 1.29, L 1.92, Q 1.82, V 1.31, T 1.93, F 1.69, M 1.57, S 1.7, Y 1.97, W 1.64, G 1.64, N 2.62, H 2.07, D 1.84, P 1.68
N19: H 2.19, C 1.59, M 1.94, E 3.36, A 2.52, S 2.05, D 2.75, W 1.73, I 1.6, T 1.78, V 1.58, G 1.96, P 1.88, R 2.4, Y 2.56, L 1.58, Q 2.26, K 1.96, F 1.67
D9: F 1.76, M 1.69, P 2.03, K 2.02, Q 1.55, S 1.96, A 1.65, H 1.97, Y 2.03, T 1.8, L 1.77, C 1.64, W 2.01, I 1.71, V 1.98, R 1.7, N 1.76, E 2.37, G 1.63
K11: D 3.48, W 2, S 2.45, M 2.32, F 2.22, N 2.56, P 2.13, G 2.22, V 2.04, C 1.78, Q 2.38, L 1.59, A 2.27, H 2.2, R 1.96, E 2.93, T 2.43, Y 1.94, I 2.71
G10: P 2.42, L 2.17, C 1.97, A 2.3, E 2.65, W 1.99, Q 2.5, M 2.73, H 2.61, D 2.96, K 2.91, T 2.45, S 2.23, I 1.93, R 2.21, Y 1.76, V 1.96, F 1.65, N 2.54
Q24: V 1.43, G 2.21, D 2.75, N 2.46, F 1.74, T 2.23, R 1.86, P 1.81, C 2.3, S 1.37, A 1.94, H 2.17, L 1.96, W 2.21, I 1.6, M 1.62, K 2.58, Y 2.01, E 2.44
S18: G 1.91, W 1.68, A 2.34, H 2.42, T 2.62, M 2.21, R 1.52, I 1.96, L 2, P 2.13, Q 2.56, F 1.36, D 3.09, V 2.58, Y 2.26, C 1.86, K 1.97, N 2.69, E 3.33
S16: W 1.91, A 2.45, G 2.33, F 2.87, P 2.05, L 1.82, Q 2.26, N 2.12, M 1.81, E 2.6, Y 2.02, R 1.78, C 2.06, H 1.93, V 2.06, I 1.98, K 2.04, D 3.25, T 2.38
